Target: Gq-coupled receptors
Assay: cell-based or functional assay

decrease in IP1 accumulation: 20%
B1: GαqG66D, P21279 1-359 (protein)
chain: MTLESIMACCLSEEAKEARRINDEIERHVRRDKRDARRELKLLLLGTGESGKSTFIKQMRIIHGSDYSDEDKRGFTKLVYQNIFTAMQAMIRAMDTLKIPYKYEHNKAHAQLVREVDVEKVSAFENPYVDAIKSLWNDPGIQECYDRRREYQLSDSTKYYLNDLDRVADPSYLPTQQDVLRVRVPTTGIIEYPFDLQSVIFRMVDVGGQRSERRKWIHCFENVTSIMFLVALSEYDQVLVESDNENRMEESKALFRTIITYPWFQNSSVILFLNKKDLLEEKIMYSHLVDYFPEYDGPQRDAQAAREFILKMFVDLNPDSDKIIYSHFTCATDTENIRFVFAAVKDTILQLNLKEYNLV
modifications: not fully specified

— patent publication US20050042720A1, “Novel promiscuous G alpha protein mutants and their use” (7TM Pharma A/S, priority 2003, published 2005)
